Assay results: PMC6992714

Target: BphP1-iB(GFP) (Rhodopseudomonas palustris | not stated)
Experiment: light-induced relocalisation in live cells (epifluorescence microscopy); HeLa co-expressing BphP1-iB(GFP), mVenus-CAAX and mCherry-QPAS1; darkness against 740 nm light (1 mW cm^-2), 37 °C; mCherry signal moves from cytoplasm to plasma membrane

- half-time of the relocalisation from cytoplasm to plasma membrane: 33.6 s
Substance: mCherry-QPAS1
